For test [1], the target named is T1, human CD3 (human, UniProt P07766 23-207; P09693 23-182; P04234 22-171). The test is described as follows: flow competition on Jurkat, 100 nM unlabeled mAb; competitor AF488-UCHT1 5 nM (self).
In test [2] the target is T1, human CD3. The test is described as follows: flow competition on Jurkat, 100 nM unlabeled mAb; competitor AF488-SK7 1.5 nM. The procedure:
(§1) In order to evaluate whether anti-CD3 monoclonal antibodies bind to the same epitope region, flow cytometry competition experiments on Jurkat cells were performed.
(§2) To that effect, a fixed concentration of the indicated AF488-labeled mAb were incubated with 100 nM of unlabeled monoclonal antibodies to assess if their binding capacity was impaired in presence of unlabeled mAbs. […] The AF488-OKT3 mIgG2b was labeled in-house using AlexaFluor488 protein labelling kit (Invitrogen #A10235) following manufacturer's instruction. The free dye removal step was done using Zeba™ Spin Desalting Columns, 7K MWCO (Thermo Scientific #89890). The final product was analyzed by UPLC-SEC to ensure the integrity of the labeled mAb.

The target in test [3] is T1, human CD3. The test is described as follows: flow competition on Jurkat, 100 nM unlabeled mAb; competitor AF488-SP34.2 20 nM. The procedure: as §1, §2
In test [4] the target is T1, human CD3. The test is described as follows: flow cytometry, AF488-labeled mAb on CD3+ Jurkat cells. (In general: A flow cytometer gives signals particle by particle.)
The target of test [5] is T1, human CD3. Briefly: flow competition on Jurkat, 100 nM unlabeled mAb; competitor AF488-OKT-3 mIgG2b 1.5 nM (self).
Test [6] deals with T1, human CD3. The test is described as follows: cell-based or functional assay.
For test [7], the target named is T1, human CD3. Briefly: apparent KD (KDapp), flow cytometry titration on purified primary human T cells. How it is done: The binding characteristics of the purified anti-CD3 mAbs were assessed in titration studies on purified human primary T cells from different donor samples. Fresh ex vivo peripheral blood mononuclear cells (PBMCs) were obtained via density centrifugation over Ficoll-Paque using standard procedures and untouched T cell fractions obtained from PBMCs by negative pan-T cell selection and magnetic cell sorting. Starting from 300 nM concentrations of the anti-CD3 mAbs, eight point binding curves were generated from the resultant mean fluorescence intensity (MFI) values obtained through detection of labelled secondary antibody to bound CD3 in flow cytometry experiments (FIGS. 3A and 3B). Both commercial mouse anti-human CD3 mAb (OKT-3; Biolegend) and an in house generated IgG1 version of OKT-3 were employed as positive controls together with a non-specific mouse IgG serving as a negative binding control. Following curve fit analysis using one-site specific binding with Hill slope, the KDapp (concentration needed to achieve a half-maximum binding at equilibrium) for each mAb was calculated (Table 2).
Eight point binding titrations were performed with the anti-CD3 mAbs starting at either 300 or 100 nM on freshly purified human T cells obtained through negative selection from PBMC fractions. Briefly, 1×10⁵ human T cells (50 μL of staining buffer (SB; PBS/1% BSA/0.01% NaN3) were incubated with graded dilutions of the anti-CD3 mAbs in SB ([…]) for 2 hours at 4° C. in 96 w U-bottom plates, followed by plate washing with SB ([…]). Cell pellets were resuspended with 25 μL of a 0.25 mg/mL solution of the goat (Fab′)₂ anti-mouse IgG (H+L)− APC secondary antibody in SB, incubated at 4° C. (30 min.), washed 1× with SB, and resuspended for flow analysis. Recombinant anti-human OKT-3 IgG2b (in house produced) and non-specific mIgG were employed similarly as positive and negative controls respectively. 10K live events were acquired on a BD LSRFortessa flow analyzer and mean fluorescence intensities (MFI) calculated after subtraction of secondary antibody alone values. Using GraphPad Prism software, the data were analyzed using a one site specific binding with Hill slope non-linear regression model to calculate KDapp and BMax values (See Table 2).

Test [8] addresses T1, human CD3. The test is described as follows: apparent KD (KDapp), flow cytometry titration on Jurkat cells. How it is done: Unless otherwise stated, all media are kept are 4° C. and all incubations are performed on wet ice. Exponentially growing Jurkat cells were centrifuged and resuspended in complete medium at a cell density of 2×10⁶ cells/mL. Fifty μL/well of cells were distributed in a polypropylene v-bottom 96 well plate and serial 1/3 dilutions of purified mAbs starting at 300 nM were added and incubated for 2 hours. Cells were washed twice by centrifugation and further incubated with a FITC labeled F(ab′)2 goat anti-mouse antibody (Fc specific, #115-096-071, Jackson Immunoresearch, Cedarlane, Burlington, ON) for an hour. Cells were washed and re-suspended in medium containing Propidium iodide to exclude dead cells from analysis. Samples were filtered through a 60 μm nylon mesh filter plate (Millipore, Ireland) to remove cell aggregates. Flow cytometry analyses were performed on 2,000 viable single-cells events gated on forward scattering, side scattering parameters and propidium iodide dye exclusion using a BD-LSRFortessa flow cytometer (Becton-Dickinson Biosciences, CA, USA) and a standard filter set using BD FACSDiva™ acquisition software, according to manufacturer's instructions.

The target in test [9] is T1, human CD3. The test is described as follows: flow competition on Jurkat, 100 nM unlabeled mAb; competitor AF488-UCHT1 5 nM. How it is done:
as §1, §2

Test [10] concerns the target T1, human CD3. The test is described as follows: flow competition on Jurkat, 100 nM unlabeled mAb; competitor AF488-SK7 1.5 nM (self).
The target of test [11] is T1, human CD3. Briefly: flow cytometry, hybridoma supernatant on CD3+ Jurkat cells. The procedure:
Cells were stained with either negative control mouse IgG (Jackson Immunoresearch cat #115-000-003) or an anti-GFP 3E6 mAb supernatant or tested hybridoma supernatant. Specific binding was reflected by the increase in the mean fluorescent intensity of antibody binding to Jurkat T-cells (FIGS. 1A to 1F, grey histograms) compared to the Jurkat CD3 negative cell line J.RT3-T3.5 (FIGS. 1A to 1F, open histograms). AF488 labeled positive control mAb OKT3 was also analyzed.

Test [12] deals with T1, human CD3. Briefly: cell-based or functional assay. The source holds these as a separate data set.
The target in test [13] is T2, Cynomolgus CD3 (Cynomolgus, UniProt Q95LI5 22-198; Q95LI7 23-181; Q95LI8 22-171).
T2 construct: whole, on cells; also called CD3 on Cynomolgus PBMCs; CD3 on HSC-F Cynomolgus T cell line
The test is described as follows: apparent KD (KDapp), flow cytometry titration on cynomolgus HSC-F T cell line. How it is done:
To characterize potential cross-reactivity of the anti-human CD3 mAbs to NHP T cells, dose response flow cytometry titration studies were performed on both freshly obtained Cynomolgus PBMCs (Comparative Medicine and Animal Resources Centre—McGill University) or the Cynomolgus derived T cell line, HSC-F (Non-Human Primate Reagent Resource—NIH). Binding studies on fresh Cynomolgus PBMCs was performed on a subset of anti-CD3 mAbs (FIG. 4) whereas the Herpesvirus saimiri immortalized Cynomolgus T cell line HSC-F was employed for further evaluations (FIGS. 5A to 5C). KDapp values were calculated using a non-linear regression model of one-site binding with Hill slope (GraphPad Prism) and tabulated (Table 3b). Similar KDapp values for anti-CD3 mAb 1E2 obtained from binding to fresh Cynomolgus PBMCs (KDapp=0.28 nM) or the HSC-F T cell line (KDapp=0.39 nM) indicated the HSC-F cell line was a suitable surrogate for ex vivo NHP T cells.
HSC-F T cells obtained from the Non-Human Primate Reagent Resource (NIH) were maintained in culture in RPMI media containing 20% FBS and 40 IU/mL recombinant human IL2. 100K HSC-F cells in logarithmic cell growth were treated with graded doses of the anti-CD3 mAbs starting at 100 nM in staining buffer (SB; PBS/1% BSA/0.01% NaN3) for 2 hours at 4° C. in 96 w V-bottom plates. Following plate washing with SB, the cell pellets were resuspended with 25 μL of goat (Fab′)₂ anti-mouse IgG (H+L)− APC secondary antibody (final 5 μg/mL), incubated for 30 minutes at 4° C., followed by flow cytometry analysis. The commercial NHP cross-reactive SP34.2 anti-CD3 mAb (BD Biosciences), recombinant anti-human OKT-3 IgG2b (in house produced) and non-specific mIgG were employed as controls. 20K live events were acquired on a BD LSRFortessa flow analyzer and mean fluorescence intensities (MFI) calculated after subtraction of secondary antibody alone values. Using GraphPad Prism software, the data were analyzed using a one site specific binding with Hill slope non-linear regression model to calculate KDapp and BMax values (See Table 2).

Test [14] has as its target T1, human CD3. The test is described as follows: flow competition on Jurkat, 100 nM unlabeled mAb; competitor AF488-OKT-3 mIgG2b 1.5 nM. How it is done:
as §1, §2

Numbering of substitutions follows the chain as printed. Where two headings read alike, the source gives them in different places.

In the case of UCHT1 (antibody), the % residual fluorescence of labeled mAb was found to be 8% in [1], 7% in test [2] and 54% in [3]. Also, the MFI in test [4] was 293 MFI.

In the case of “recombinant mouse IgG2b OKT-3 produced in-house (antibody)”, the % residual fluorescence of labeled mAb in test [5] came out at 8%; in test [2], 6%; in test [3] it was 26%; in test [9] it was 11%. The % max ref. OKT3 (dTomato activation) in [6] stood at 105%. In test [6], this molecule came in with an EC50 of dTomato induction (CD69 promoter), Jurkat-CD69-dTomato cells, 24 h of 0.17 µg/mL. The molecule further gave an IC50, indirect ADC surrogate growth inhibition (anti-mouse-DM1) on Jurkat cells in test [6] of 0.057 nM. Also, the Span, indirect ADC surrogate growth inhibition on Jurkat cells in test [6] is 91%. Further, the Kd was 0.03 nM in test [7] and 0.13 to 0.23 nM in test [8].

Take SK7 (antibody): the values for the % residual fluorescence of labeled mAb in test [3], in [10] and in [9] were 58%, 9% and 14%, respectively. In test [4], the MFI was 311 MFI.

OKT-3 AF488 (antibody) returned an MFI in test [4] of 265 MFI.

B1: F332-5D4 (antibody, mouse IgG2b, V domains shown)
VH: QVQLQQPGAELGKPGTSVKLSCKASGYTFTSYWMHWVKQRPGQGLEWIGNINPNGGDSNYNEKFKSKATLTVDMSSSTAYMQLSTLTSEDSAVYYCTRDISGQYYFDFWGQGTSLTVFS
VL: DILMSQSPSSLAVSAGEQVTMSCKSSQSLLNSRTRKNYLAWYQQKPGQSPKLLIFWASTRKSGVPDRFTGSGSGTYFTLTINSVQTEDLAVYYCTQSYSLRTFGGGTKLEIK
notes: also called F332-5D4-2; F332-5D4 (5F8)
Consider B1, for which, in [11], the MFI worked out at 326 MFI. Besides, the “% residual fluorescence of labeled mAb” value in [2] came to 49%; in [3], 10%; in test [9], 73%; in [14] it was 93%. Moreover, in [12], the “% max ref. OKT3 (dTomato activation)” value was 109%. For the same molecule, in [12], the “EC50 of dTomato induction (CD69 promoter), Jurkat-CD69-dTomato cells, 24 h” value (“EC50 of dTomato induction” for short) came out at 0.27 µg/mL. In addition, the Kd in test [7] was found to be 0.61 nM; in test [13] it was 0.64 nM; in [8] it was 0.7 nM.

B2: F332-10B6 (antibody, mouse IgG2a, V domains shown)
VH: QVQLQQPGAELGKPGTSVNLSCKASGYTFTDYWIHWVKQRPGQGLEWIGNINPNSGDTNYNENFKTKATLTVDRSSSTAYMQLSSLTSEDSAVYYCTRDISGQYYFDFWGQGTTLTVSS
VL: B1 VL with L3V, Q18K, F55Y, K61E, Y76D, N82S, T86A, T95I, S99N
notes: also called F332-10B6-2; F332-12B5-1
Molecule B2 registered an MFI in test [11] of 143 MFI. Moreover, the “% residual fluorescence of labeled mAb” value in test [2] was 56%; in test [3], 32%; in [9], 80%; in test [14], 94%. Further, the “% max ref. OKT3 (dTomato activation)” value in test [12] was 60%. For the same molecule, the “EC50 of dTomato induction” value in [12] worked out at 0.23 µg/mL. Also, the Kd in [7] worked out at 30.1 nM; in test [13], 2 nM; in test [8], 3.7 nM.

B3: F332-13B4 (antibody, mouse IgG2a, V domains shown)
VH: QVQLQQSGPELVKPGASVKISCKASGYSFTNSYVHWVKQTPGQGLEWIGWIYPGSTNIKYNEKFKGKATLTADTSSSTVYMQLSSLTSEDSAVYFCARDGSYFFDYWGQGTTLTVSS
VL: B1 VL with L3V, Q18K, S22T, F55Y, K61E, Y76D, N82S, T86A, T95K, S99I
notes: also called F332-13B4-2
For B3, the MFI in [11] stood at 373 MFI. In addition, the “% residual fluorescence of labeled mAb” value in test [2] was 43%; in [3] it was 8%; in [9] it was 72%; in test [14] it was 79%. For the same molecule, the “% max ref. OKT3 (dTomato activation)” value in test [12] was 90%. Moreover, the “EC50 of dTomato induction” value in test [12] was found to be 0.47 µg/mL. The Kd in test [7] is 0.05 nM; in test [13] it was 0.64 nM; in test [8], 0.6 nM.

These data come from patent US20250051443A1 (NATIONAL RESEARCH COUNCIL OF CANADA, published 2025).
